Laboratory results as given in patent publication US20070243194A1.

How the values were obtained:
[1] = target: human IGF-1R(1-902)-His10 (human) (UniProt P08069); experiment: ELISA on plates coated with rh-IGF-1R, HRPO anti-mouse IgG Fc [a]
[2] = target: human IGF-1R on cells (human) (UniProt P08069); experiment: flow cytometry on MCF-7 cells, FITC anti-mouse IgG; x axis is log Ab conc. (nM)
human IGF-1R on cells (human), sequence (P08069 31-740, chain 1 of 2): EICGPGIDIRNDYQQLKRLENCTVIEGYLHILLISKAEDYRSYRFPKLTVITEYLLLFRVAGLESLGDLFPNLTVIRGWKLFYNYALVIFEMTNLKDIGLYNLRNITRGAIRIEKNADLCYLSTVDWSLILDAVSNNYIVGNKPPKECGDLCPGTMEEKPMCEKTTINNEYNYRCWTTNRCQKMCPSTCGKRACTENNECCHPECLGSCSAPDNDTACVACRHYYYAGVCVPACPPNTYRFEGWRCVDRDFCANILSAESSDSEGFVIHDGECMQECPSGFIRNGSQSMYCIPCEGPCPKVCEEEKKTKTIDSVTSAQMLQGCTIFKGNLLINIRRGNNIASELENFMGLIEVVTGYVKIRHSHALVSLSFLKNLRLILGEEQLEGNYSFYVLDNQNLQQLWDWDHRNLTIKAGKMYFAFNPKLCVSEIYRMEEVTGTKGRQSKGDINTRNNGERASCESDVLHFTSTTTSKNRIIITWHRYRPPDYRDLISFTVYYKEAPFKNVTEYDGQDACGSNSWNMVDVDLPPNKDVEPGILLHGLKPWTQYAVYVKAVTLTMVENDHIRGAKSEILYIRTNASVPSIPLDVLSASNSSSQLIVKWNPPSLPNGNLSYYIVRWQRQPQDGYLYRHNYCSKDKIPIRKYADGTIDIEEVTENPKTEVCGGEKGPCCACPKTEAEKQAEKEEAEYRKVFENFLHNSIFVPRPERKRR
human IGF-1R on cells (human), sequence (P08069 741-1367, chain 2 of 2): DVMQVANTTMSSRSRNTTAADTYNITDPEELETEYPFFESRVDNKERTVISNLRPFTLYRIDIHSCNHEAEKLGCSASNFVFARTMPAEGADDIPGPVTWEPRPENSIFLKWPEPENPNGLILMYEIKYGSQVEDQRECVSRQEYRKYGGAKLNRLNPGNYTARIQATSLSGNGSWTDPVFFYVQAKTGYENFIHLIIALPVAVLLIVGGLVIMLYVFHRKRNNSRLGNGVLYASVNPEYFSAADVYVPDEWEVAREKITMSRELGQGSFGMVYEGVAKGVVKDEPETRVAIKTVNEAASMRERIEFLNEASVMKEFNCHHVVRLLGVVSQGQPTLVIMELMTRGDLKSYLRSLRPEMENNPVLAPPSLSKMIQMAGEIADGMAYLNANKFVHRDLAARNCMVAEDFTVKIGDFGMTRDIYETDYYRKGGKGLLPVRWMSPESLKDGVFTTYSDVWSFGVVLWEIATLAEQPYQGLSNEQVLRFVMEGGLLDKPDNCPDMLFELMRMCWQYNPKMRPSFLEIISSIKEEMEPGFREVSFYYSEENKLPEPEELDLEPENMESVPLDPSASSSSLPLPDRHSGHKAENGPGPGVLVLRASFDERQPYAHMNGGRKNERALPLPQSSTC

human IGF-1R(1-902)-His10 (human), sequence (P08069 other isoform, or with tags, fused parts or gaps): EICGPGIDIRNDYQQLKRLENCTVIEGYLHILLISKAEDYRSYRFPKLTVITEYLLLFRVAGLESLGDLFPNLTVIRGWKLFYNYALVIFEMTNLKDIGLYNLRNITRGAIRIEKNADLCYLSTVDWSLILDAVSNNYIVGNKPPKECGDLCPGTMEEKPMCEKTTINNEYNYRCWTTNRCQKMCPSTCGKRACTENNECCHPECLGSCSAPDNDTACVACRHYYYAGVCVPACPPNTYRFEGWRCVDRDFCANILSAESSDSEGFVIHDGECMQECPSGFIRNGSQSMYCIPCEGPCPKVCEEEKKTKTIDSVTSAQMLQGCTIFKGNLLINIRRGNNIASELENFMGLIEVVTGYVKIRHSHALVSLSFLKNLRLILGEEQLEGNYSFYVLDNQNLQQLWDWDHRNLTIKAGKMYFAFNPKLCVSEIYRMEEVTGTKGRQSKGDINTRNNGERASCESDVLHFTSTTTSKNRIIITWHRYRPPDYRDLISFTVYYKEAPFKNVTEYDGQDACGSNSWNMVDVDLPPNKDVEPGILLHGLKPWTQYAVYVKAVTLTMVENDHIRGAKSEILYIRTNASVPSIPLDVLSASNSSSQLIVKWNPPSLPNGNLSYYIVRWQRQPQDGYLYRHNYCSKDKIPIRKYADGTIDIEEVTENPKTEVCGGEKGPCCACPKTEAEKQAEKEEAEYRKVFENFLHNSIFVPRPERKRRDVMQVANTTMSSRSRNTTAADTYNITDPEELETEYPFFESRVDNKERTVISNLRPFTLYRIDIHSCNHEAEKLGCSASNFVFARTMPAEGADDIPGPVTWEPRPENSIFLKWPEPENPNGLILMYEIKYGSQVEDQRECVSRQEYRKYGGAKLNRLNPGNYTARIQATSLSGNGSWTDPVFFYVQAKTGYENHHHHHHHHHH

EC50 (read off the curve) [1]: 0.2 nM | EC50 (read off the curve) [2]: 5 nM
Substance: IR3 (antibody)
